The subject of this data set is Bacillus subtilis. In words: cleaved RNA product abundance (RNA/gDNA barcode ratio) relative to median wild-type variant (ratio to wild type); higher = more accumulation of the downstream cleavage product. The settings on record: cleavage site: cggR-gapA (positions -7 to +36 mutated). The essentials:
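Oligos with a 9% error rate were used to build barcoded, mutagenized RNase Y cleavage-site windows within truncated aprE or tetM reporter mRNAs, which were integrated into the B. subtilis chromosome. Cultures were grown in LB at 37°C between OD600 0.0003 and 0.3. Cleaved RNA was gel-selected, reverse transcribed and barcode-sequenced, as were genomic DNA barcodes, and UMIs were collapsed. Cleaved product abundance is the scaled RNA:gDNA barcode ratio, with the median construct carrying the unmutated site as reference.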

Where [1] appears, read: experiment (reporter, strain, medium): exp 4a: truncated aprE reporter, strain BJT201 with 2% xylose (RNase J1 expressed).
The mark [2] stands for this setting: experiment (reporter, strain, medium): exp 2b: truncated aprE reporter, strain BJT200.
The mark [3] stands for this setting: experiment (reporter, strain, medium): exp 6: tetM reporter, strain 168.

For the sequence “ACAGACGAAGGAGCCGCACAGAAGTTATTAAGGGATGAATAATCCCTAAATATAAATATCTCTCACTTATTTAAA”, the “cleaved RNA product abundance” value under setting [1] is 0.586. The same measure, in the same setting: for “ACAGACGAAGGAGCCGCACAGAAGTTATTAAGGGATGAATAATCCCTCAAAATAAATATCTCTCACTTATTTAAA” the value was 0.337.

As to “ACAGACGAAGGAGCCGCACAGAAGTTATTAAGGGATGAATAATCCCTCAACATAAATATCTCTCACTTATTTAAA”, the “cleaved RNA product abundance” value under setting [2] was found to be 0.198 and the “cleaved RNA product abundance” value under setting [1] worked out at 0.294. For the sequence “ACAGACGAAGGAGCCGCACAGAAGTTATTAAGGGATGAATAATCCCTCAATAAAAATATCTCTCACTTATTTAAA”, the “cleaved RNA product abundance” value under setting [1] came out at 0.116. On to “ACAGACGAAGGAGCCGCACAGAAGTTATTAAGGGATGAATAATCCCTCAATATAAAGATCTCTCACTTATTTAAA”, for which, under setting [1], the “cleaved RNA product abundance” value is 0.549. As for “ACAGACGAAGGAGCCGCACAGAAGTTATTAAGGGATGAATAATCCCTCAATATAAATATCTCTCACTTATTTAAA”, the “cleaved RNA product abundance” value under setting [2] came to 0.962, the “cleaved RNA product abundance” value under setting [1] worked out at 1.04 and the “cleaved RNA product abundance” value under setting [3] came out at 1.07. Regarding “ACAGACGAAGGAGCCGCACAGAAGTTATTAAGGGATGAATAATCCCTCAATATACATATCTCTCACTTATTTAAA”, under setting [1], the “cleaved RNA product abundance” value came to 1.13. On the same count and under the same terms, the figure for “ACAGACGAAGGAGCCGCACAGAAGTTATTAAGGGATGAATAATCCCTGAATATAAATATCTCTCACTTATTTAAA” is 0.523; for “ACAGACGAAGGAGCCGCACAGAAGTTATTAAGGGATGAATAATCCCTTAATATAAATATCTCTCACTTATTTAAA” it is 0.633. In the case of “ACAGACGAAGGAGCCGCACAGAAGTTATTAAGGGATGAATAATCCTTCAATATAAATATCTCTCACTTATTTAAA”, the “cleaved RNA product abundance” value by setting is: under setting [2], 0.461; under setting [1], 0.469.

With “ACAGACGAAGGAGCCGCACAGAAGTTATTAAGGGATTAATAATCACTCAATATAAATATCTCTCACTTATTTAAA”, under setting [1], the “cleaved RNA product abundance” value was determined as 0.293. The same measure, in the same setting: for “ACAGACGAAGGAGCCGCACAGAAGTTATTAAGGGATTAATAATCCCTCAATATAAATATCTCTCACTTATTTAAA” the value was 0.962; for “ACAGACGAAGGAGCCGCACAGAAGTTATTAAGGGTTGAATAATCCCTCAATATAAATATCTCTCACTTATTTAAA”, 0.473. Take “ACAGACGAAGGAGCCGCACAGAAGTTATTAAGGTATGAATAATCCCTCAATATAAATATCTCTCACTTATTTAAA”: the “cleaved RNA product abundance” value is, setting by setting: under setting [2], 0.102; under setting [1], 0.198. In the case of “ACAGACGAAGGAGCCGCACAGAAGTTATTAAGTGATGAATAATCCCTCAATATAAATATCTCTCACTTATTTAAA”, the “cleaved RNA product abundance” value reads like this: under setting [2], 0.106; under setting [1], 0.126.

Regarding “ACAGACGAAGGAGCCGCACAGAAGTTATTAATGGATGAATAATCCCTCAATATAAATATCTCTCACTTATTTAAA”, the “cleaved RNA product abundance” value by setting is: under setting [2], 0.103; under setting [1], 0.165.

Regarding “ACAGACGAAGGAGCCGCACAGAAGTTATTCAGGGATGAATAATCCCTCAATATAAATATCTCTCACTTATTTAAA”, the “cleaved RNA product abundance” value under setting [1] amounted to 1.28. Same read-out and setting: the figure for “ACAGACGAAGGAGCCGCACAGAAGTTATTTAGGGATGAATAATCCCTCAATATAAATATCTCTCACTTATTTAAA” is 0.843; for “ACAGACGAAGGAGCCGCACAGAAGTTCTTAAGGGATGAATAATCCCTCAATATAAATATCTCTCACTTATTTAAA” it is 0.275. For “ACAGACGAAGGAGCCGCACAGAATTTATTAAGGGATGAATAATCCCTCAATATAAATATCTCTCACTTATTTAAA”, the “cleaved RNA product abundance” value is, setting by setting: under setting [2], 0.544; under setting [1], 0.488. As for “ACAGACGAAGGAGCCGCACAGATGTTATTAAGGGATGAATAATCCCTCAATATAAATATCTCTCACTTATTTAAA”, the “cleaved RNA product abundance” value under setting [1] stood at 1.11. In the case of “ACAGACGAAGGAGCCGCACATAAGTTATTAAGGGATGAATAATCCCTCAATATAAATATCTCTCACTTATTTAAA”, the “cleaved RNA product abundance” value worked out at 0.732 under setting [2] and 1.07 under setting [1]. For “ACAGACGAAGGAGCCGCAGAAAAGTTATTAAGGGATGAATAATCCCTCAATATAAATATCTCTCACTTATTTAAA” the same measures were 1.14 and 1.24. For “ACAGACGAAGGAGCCGCAGACAAGTTATTAAGGGATGAATAATCCCTCAATATAAATATCTCTCACTTATTTAAA”, under setting [1], the “cleaved RNA product abundance” value was found to be 0.844. For the sequence “ACAGACGAAGGAGCCGCAGAGAAGTTAATAAGGGATGAATAATCCCTCAATATAAATATCTCTCACTTATTTAAA”, the “cleaved RNA product abundance” value under setting [1] came to 0.449. On the same count and under the same terms, for “ACAGACGAAGGAGCCGCAGAGAAGTTATAAAGGGATGAATAATCCCTCAATATAAATATCTCTCACTTATTTAAA” the value was 0.295; for “ACAGACGAAGGAGCCGCAGAGAAGTTATCAAGGGATGAATAATCCCTCAATATAAATATCTCTCACTTATTTAAA”, 0.328. As to “ACAGACGAAGGAGCCGCAGAGAAGTTATTAAAGGATGAATAATCCCTCAATATAAATATCTCTCACTTATTTAAA”, the “cleaved RNA product abundance” value under setting [2] was determined as 0.128 and the “cleaved RNA product abundance” value under setting [1] was 0.227. On the same counts, the results for “ACAGACGAAGGAGCCGCAGAGAAGTTATTAAGAGATGAATAATCCCTCAATATAAATATCTCTCACTTATTTAAA” are 0.0994 and 0.118. Consider “ACAGACGAAGGAGCCGCAGAGAAGTTATTAAGCGATGAATAATCCCTCAATATAAATATCTCTCACTTATTTAAA”, for which, under setting [1], the “cleaved RNA product abundance” value turned out to be 0.171. On the same count and under the same terms, for “ACAGACGAAGGAGCCGCAGAGAAGTTATTAAGGAATGAATAATCCCTCAATATAAATATCTCTCACTTATTTAAA” the value was 0.143; for “ACAGACGAAGGAGCCGCAGAGAAGTTATTAAGGGATGAATAATCCATCAATATAAATATCTCTCACTTATTTAAA”, 0.178; for “ACAGACGAAGGAGCCGCAGAGAAGTTATTAAGGGATGAATAATCCCACAATATAAATATCTCTCACTTATTTAAA”, 0.235.

For the sequence “ACAGACGAAGGAGCCGCAGAGAAGTTATTAAGGGATGAATAATCCCTAAATATAAATATCTCTCACTTATTTAAA”, the “cleaved RNA product abundance” value under setting [1] came to 0.755.

On to “ACAGACGAAGGAGCCGCAGAGAAGTTATTAAGGGATGAATAATCCCTCAATATAAATAACTCTCACTTATTTAAA”, for which the “cleaved RNA product abundance” value was 0.518 under setting [2] and 0.451 under setting [1]. On to “ACAGACGAAGGAGCCGCAGAGAAGTTATTAAGGGATGAATAATCCCTCAATATAAATATCTCTCACTTATTTAAA”, for which the “cleaved RNA product abundance” value is, setting by setting: under setting [2], 0.839; under setting [1], 0.799; under setting [3], 0.208. Consider “ACAGACGAAGGAGCCGCAGAGAAGTTATTAAGGGATGAATAATCCCTCAGTATAAATATCTCTCACTTATTTAAA”, for which the “cleaved RNA product abundance” value under setting [1] stood at 0.337. Consider “ACAGACGAAGGAGCCGCAGAGAAGTTATTAAGGGATGAATAATCCGTCAATATAAATATCTCTCACTTATTTAAA”, for which the “cleaved RNA product abundance” value under setting [1] came out at 0.294. As to “ACAGACGAAGGAGCCGCAGAGAAGTTATTAAGGGATGATTAATCCCTCAATATAAATATCTCTCACTTATTTAAA”, the “cleaved RNA product abundance” value under setting [2] amounted to 0.638. With “ACAGACGAAGGAGCCGCAGAGAAGTTATTAAGGGATTAATAATCCCTCAATATAAATATCTCTCACTTATTTAAA”, the “cleaved RNA product abundance” value under setting [1] was determined as 0.696. For “ACAGACGAAGGAGCCGCAGAGAAGTTATTAAGGGCTGAATAATCCCTCAATATAAATATCTCTCACTTATTTAAA”, under setting [1], the “cleaved RNA product abundance” value is 0.694.

As to “ACAGACGAAGGAGCCGCAGAGAAGTTATTAAGGTATGAATAATCCCTCAATATAAATATCTCTCACTTATTTAAA”, the “cleaved RNA product abundance” value under setting [1] was 0.137.

“ACAGACGAAGGAGCCGCAGAGAAGTTATTAAGTGATGAATAATCCCTCAATATAAATATCTCTCACTTATTTAAA”: the “cleaved RNA product abundance” value under setting [1] worked out at 0.161. On the same count and under the same terms, for “ACAGACGAAGGAGCCGCAGAGAAGTTATTAATGGATGAATAATCCCTCAATATAAATATCTCTCACTTATTTAAA” the value was 0.184; for “ACAGACGAAGGAGCCGCAGAGAAGTTTTTAAGGGATGAATAATCCCTCAATATAAATATCTCTCACTTATTTAAA”, 0.37; for “ACAGACGAAGGAGCCGCAGATAAGTTATTAAGGGATGAATAATCCCTCAATATAAATATCTCTCACTTATTTAAA”, 0.636.

As to “ACAGACGAAGGAGCCGCATAAAAGTTATTAAGGCATGAATAATCCCTCAATATAAATATCTCTCACTTATTTAAA”, the “cleaved RNA product abundance” value under setting [1] was 0.0533.

On to “ACAGACGAAGGAGCCGCATAGAAATTATTAAGGGATGAATAATCCCTCAATATAAATATCTCTCACTTATTTAAA”, for which the “cleaved RNA product abundance” value stood at 0.834 under setting [2] and 0.574 under setting [1]. On the same counts, the results for “ACAGACGAAGGAGCCGCATAGAACTTATTAAGGGATGAATAATCCCTCAATATAAATATCTCTCACTTATTTAAA” are 0.341 and 0.499. Consider “ACAGACGAAGGAGCCGCATAGAAGTAATTAAGGGATGAATAATCCCTCAATATAAATATCTCTCACTTATTTAAA”, for which the “cleaved RNA product abundance” value under setting [1] turned out to be 0.356. As for “ACAGACGAAGGAGCCGCATAGAAGTTAATAAGGGATGAATAATCCCTCAATATAAATATCTCTCACTTATTTAAA”, the “cleaved RNA product abundance” value is 0.239 under setting [2] and 0.304 under setting [1].

Consider “ACAGACGAAGGAGCCGCATAGAAGTTACTAAGGGATGAATAATCCCTCAATATAAATATCTCTCACTTATTTAAA”, for which the “cleaved RNA product abundance” value runs as follows: under setting [2], 0.24; under setting [1], 0.221.

For “ACAGACGAAGGAGCCGCATAGAAGTTATAAAGGGATGAATAATCCCTCAATATAAATATCTCTCACTTATTTAAA”, the “cleaved RNA product abundance” value under setting [1] turned out to be 0.339. For the sequence “ACAGACGAAGGAGCCGCATAGAAGTTATCAAGGGATGAATAATCCCTCAATATAAATATCTCTCACTTATTTAAA”, the “cleaved RNA product abundance” value under setting [1] is 0.549.

Values taken from the supplement of paper PMC11780869.
